Patent publication US6545131

How the values were obtained:
[1] = system: Mu-EHSSKLQ-AMC (Glu-His-Ser-Ser-Lys-Leu-Gln; SEQ ID NO:10)
[2] = system: Mu-HSSKLQ-AMC (His-Ser-Ser-Lys-Leu-Gln; SEQ ID NO:7)
[3] = system: Mu-SKLQ-AMC (Ser-Lys-Leu-Gln; SEQ ID NO:1)
[4] = system: Mu-QNKISYQ-AMC (Gln-Asn-Lys-Ile-Ser-Tyr-Gln; SEQ ID NO:11)
[5] = system: Mu-ENKISYQ-AMC (Glu-Asn-Lys-Ile-Ser-Tyr-Gln; SEQ ID NO:12)
[6] = system: Mu-ATKSKQH-AMC (Ala-Thr-Lys-Ser-Lys-Gln-His; SEQ ID NO:13)
[7] = system: Mu-EHSSKLQ-AMC (Glu-His-Ser-Ser-Lys-Leu-Gln; SEQ ID NO:10); test: fluorogenic AMC-release kinetics, Lineweaver-Burke plot
[8] = system: Mu-HSSKLQ-AMC (His-Ser-Ser-Lys-Leu-Gln; SEQ ID NO:7); test: as above
[9] = system: Mu-SKLQ-AMC (Ser-Lys-Leu-Gln; SEQ ID NO:1); test: as above
[10] = system: Mu-ATKSKQH-AMC (Ala-Thr-Lys-Ser-Lys-Gln-His; SEQ ID NO:13); test: as above

plasmin, sequence (P00747 20-580): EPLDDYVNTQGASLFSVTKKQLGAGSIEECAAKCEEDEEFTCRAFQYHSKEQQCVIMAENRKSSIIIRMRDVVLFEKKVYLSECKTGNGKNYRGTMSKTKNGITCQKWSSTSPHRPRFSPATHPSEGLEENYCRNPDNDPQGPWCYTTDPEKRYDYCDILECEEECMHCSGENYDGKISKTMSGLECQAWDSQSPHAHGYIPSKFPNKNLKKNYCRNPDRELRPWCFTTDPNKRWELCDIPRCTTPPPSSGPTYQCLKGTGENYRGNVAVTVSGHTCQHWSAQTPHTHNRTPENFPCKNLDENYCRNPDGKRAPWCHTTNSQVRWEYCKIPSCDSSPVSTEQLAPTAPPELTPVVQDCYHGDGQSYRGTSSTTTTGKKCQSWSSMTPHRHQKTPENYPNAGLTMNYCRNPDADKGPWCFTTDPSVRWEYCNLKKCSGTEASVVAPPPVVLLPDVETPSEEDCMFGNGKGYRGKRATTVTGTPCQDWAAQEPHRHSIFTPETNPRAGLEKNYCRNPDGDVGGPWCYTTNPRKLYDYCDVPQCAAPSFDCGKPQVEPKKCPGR
plasmin, sequence (P00747 581-810): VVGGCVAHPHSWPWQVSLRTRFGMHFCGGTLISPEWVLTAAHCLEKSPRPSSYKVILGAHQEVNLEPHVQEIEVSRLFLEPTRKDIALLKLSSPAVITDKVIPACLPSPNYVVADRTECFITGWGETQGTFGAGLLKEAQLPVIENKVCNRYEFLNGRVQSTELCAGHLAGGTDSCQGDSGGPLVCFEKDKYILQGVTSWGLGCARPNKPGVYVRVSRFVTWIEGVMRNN
tissue plasminogen activator (TPA), sequence (P00750 36-562): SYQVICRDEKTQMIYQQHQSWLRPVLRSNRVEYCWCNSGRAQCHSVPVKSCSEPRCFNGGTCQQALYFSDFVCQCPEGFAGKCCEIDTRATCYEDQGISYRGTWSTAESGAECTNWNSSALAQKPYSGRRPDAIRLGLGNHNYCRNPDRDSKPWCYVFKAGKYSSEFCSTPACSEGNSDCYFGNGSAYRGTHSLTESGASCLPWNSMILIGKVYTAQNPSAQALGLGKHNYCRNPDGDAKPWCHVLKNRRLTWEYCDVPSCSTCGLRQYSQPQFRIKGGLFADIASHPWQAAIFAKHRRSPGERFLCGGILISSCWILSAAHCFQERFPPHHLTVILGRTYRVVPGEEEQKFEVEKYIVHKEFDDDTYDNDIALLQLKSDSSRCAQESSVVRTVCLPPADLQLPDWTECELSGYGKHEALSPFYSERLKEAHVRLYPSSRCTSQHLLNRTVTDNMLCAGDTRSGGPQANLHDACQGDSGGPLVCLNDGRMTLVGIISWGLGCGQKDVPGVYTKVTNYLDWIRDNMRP

In the case of Cathepsin B, the peptide cleavage rate (AMC release) (pmol/min/200 pmol protease) [1] is reported as 4.3, the peptide cleavage rate (AMC release) (pmol/min/200 pmol protease) [2] is reported as 17.3 and the peptide cleavage rate (AMC release) (pmol/min/200 pmol protease) (Mu-KLQ-AMC) is reported as 87. It also gave a peptide cleavage rate (AMC release) (pmol/min/200 pmol protease) [3] of 31.2 and a peptide cleavage rate (AMC release) (pmol/min/200 pmol protease) (Mu-LQ-AMC) of 190.
Cathepsin C gave a peptide cleavage rate (AMC release) (pmol/min/200 pmol protease) [1] of under 0.1, a peptide cleavage rate (AMC release) (pmol/min/200 pmol protease) [2] of under 0.1 and a peptide cleavage rate (AMC release) (pmol/min/200 pmol protease) (Mu-KLQ-AMC) of under 0.1. For the same substance, the peptide cleavage rate (AMC release) (pmol/min/200 pmol protease) [3] was under 0.1 and the peptide cleavage rate (AMC release) (pmol/min/200 pmol protease) (Mu-LQ-AMC) was under 0.1.
Cathepsin D was tested, and the peptide cleavage rate (AMC release) (pmol/min/200 pmol protease) [1] was 2.2, the peptide cleavage rate (AMC release) (pmol/min/200 pmol protease) [2] was 3.8 and the peptide cleavage rate (AMC release) (pmol/min/200 pmol protease) [3] was 6.4. For the same substance, the peptide cleavage rate (AMC release) (pmol/min/200 pmol protease) (Mu-LQ-AMC) was 20.
For chymotrypsin, the substrate cleavage rate (AMC release) (pmol/min/200 pmol protease) [1] was under 0.1, the substrate cleavage rate (AMC release) (pmol/min/200 pmol protease) [4] was 9 and the substrate cleavage rate (AMC release) (pmol/min/200 pmol protease) [5] was 3.6. It also gave a substrate cleavage rate (AMC release) (pmol/min/200 pmol protease) [6] of 38.8.
elastase was tested, and the substrate cleavage rate (AMC release) (pmol/min/200 pmol protease) [1] was under 0.1, the substrate cleavage rate (AMC release) (pmol/min/200 pmol protease) [4] was 9 and the substrate cleavage rate (AMC release) (pmol/min/200 pmol protease) [5] was 2.6. The substrate cleavage rate (AMC release) (pmol/min/200 pmol protease) [6] was under 0.1.
In the case of human kallikrein, hK1, the substrate cleavage rate (AMC release) (pmol/min/200 pmol protease) [1] is reported as under 0.1, the substrate cleavage rate (AMC release) (pmol/min/200 pmol protease) [5] is reported as under 0.1 and the substrate cleavage rate (AMC release) (pmol/min/200 pmol protease) [6] is reported as under 0.1.
plasmin showed a substrate cleavage rate (AMC release) (pmol/min/200 pmol protease) [1] of under 0.1, a substrate cleavage rate (AMC release) (pmol/min/200 pmol protease) [4] of under 0.1 and a substrate cleavage rate (AMC release) (pmol/min/200 pmol protease) [5] of 0.6. The substrate cleavage rate (AMC release) (pmol/min/200 pmol protease) [6] was under 0.1.
In the case of porcine liver esterase, the peptide cleavage rate (AMC release) (pmol/min/200 pmol protease) [1] is reported as under 0.1, the peptide cleavage rate (AMC release) (pmol/min/200 pmol protease) [2] is reported as under 0.1 and the peptide cleavage rate (AMC release) (pmol/min/200 pmol protease) (Mu-KLQ-AMC) is reported as under 0.1. It also gave a peptide cleavage rate (AMC release) (pmol/min/200 pmol protease) [3] of under 0.1 and a peptide cleavage rate (AMC release) (pmol/min/200 pmol protease) (Mu-LQ-AMC) of under 0.1.
prostate specific antigen (PSA) gave a Kcat [1] of 0.02 s⁻¹, a Kcat/Km [1] of 10.6 s^-1M^-1 and a peptide cleavage rate (AMC release) (pmol/min/200 pmol protease) [1] of 31.6. The substrate cleavage rate (AMC release) (pmol/min/200 pmol protease) [1] was 31.6, the substrate cleavage rate (AMC release) (pmol/min/200 pmol protease) [4] was 16.8 and the Kcat [2] was 0.011 s⁻¹. For the same substance, the Kcat/Km [2] was 23.6 s^-1M^-1, the peptide cleavage rate (AMC release) (pmol/min/200 pmol protease) [2] was 62.7 and the peptide cleavage rate (AMC release) (pmol/min/200 pmol protease) (Mu-KLQ-AMC) was 0.4. It also gave a Kcat [3] of 0.02 s⁻¹, a Kcat/Km [3] of 24.6 s^-1M^-1 and a peptide cleavage rate (AMC release) (pmol/min/200 pmol protease) [3] of 29.6. It also gave a substrate cleavage rate (AMC release) (pmol/min/200 pmol protease) [5] of 14.4, a peptide cleavage rate (AMC release) (pmol/min/200 pmol protease) (Mu-LQ-AMC) of under 0.1 and a Kcat [6] of 0.0091 s⁻¹. For the same substance, the Kcat/Km [6] was 6.9 s^-1M^-1, the substrate cleavage rate (AMC release) (pmol/min/200 pmol protease) [6] was 16 and the Km [7] was 1160 µM. The Km [8] was 470 µM, the Km [9] was 813 µM and the Km [10] was 310 µM.
In the case of thrombin, the substrate cleavage rate (AMC release) (pmol/min/200 pmol protease) [1] is reported as under 0.1, the substrate cleavage rate (AMC release) (pmol/min/200 pmol protease) [4] is reported as 0.4 and the substrate cleavage rate (AMC release) (pmol/min/200 pmol protease) [5] is reported as 0.3. The substrate cleavage rate (AMC release) (pmol/min/200 pmol protease) [6] was 0.2.
In the case of tissue plasminogen activator (TPA), the substrate cleavage rate (AMC release) (pmol/min/200 pmol protease) [1] is reported as under 0.1, the substrate cleavage rate (AMC release) (pmol/min/200 pmol protease) [4] is reported as 0.4 and the substrate cleavage rate (AMC release) (pmol/min/200 pmol protease) [5] is reported as 0.04. For the same substance, the substrate cleavage rate (AMC release) (pmol/min/200 pmol protease) [6] was under 0.1.
Substance urokinase has a substrate cleavage rate (AMC release) (pmol/min/200 pmol protease) [1] of under 0.1, a substrate cleavage rate (AMC release) (pmol/min/200 pmol protease) [5] of under 0.1 and a substrate cleavage rate (AMC release) (pmol/min/200 pmol protease) [6] of under 0.1.
